Reference: the supplement of paper PMC10126150
± gives the standard deviation of the averaged measurements.
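Further: ATP exposure 15 min at 22 °C before imaging.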

Each sequence was assayed on ATP (assay: switch fluorescence ratio, 500 uM ATP over buffer (Cy3 cluster intensity, sum of 5 cycles each) (fold (ratio)); higher = stronger signal-on switching upon ATP binding; sequences stand for … in TCGTCGGCAGCGTCAGATGTGTATAAGAGACAGTTTTTTTTTTTTTTTTTTTTTTTTT…TC). Settings: aptamer strand: ATP DNA aptamer (quencher-CACCTGGGGGAGTATTGCGGAGGAAGG + anchor), 100 nM annealed; ATP concentration: 500 uM.
Outline: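 Clusters with intensities outside 100-1000 RFU were excluded. The remaining Cy3-labelled switching-strand clusters on a modified Illumina MiSeq flow-cell had been annealed to 100 nM quencher-labelled ATP aptamer and imaged in selection buffer, then after 15 min with 500 uM ATP at 22 °C, for five cycles separated by NaOH stripping and re-annealing. The fluorescence ratio, averaged per switch-domain sequence, is each cluster's summed target-cycle Cy3 intensity over its summed buffer-cycle Cy3 intensity.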
Sequence GGAAAAGGCT has a switch fluorescence ratio of 1.02 ± 0.07.
GGAAAAGGGA was tested, and the switch fluorescence ratio was 1.01 ± 0.049.
GGAAAAGGTT was tested, and the switch fluorescence ratio was 0.9955 ± 0.0073.
For GGAAACACAG, the switch fluorescence ratio was 1.02 ± 0.035.
GGAAACAGGA gave a switch fluorescence ratio of 1.02 ± 0.05.
GGAAACCCGC was tested, and the switch fluorescence ratio was 1.14 ± 0.071.
With GGAAACGCGA the switch fluorescence ratio was 1.54 ± 0.093.
GGAAACTGGT gave a switch fluorescence ratio of 1.05 ± 0.069.
In the case of GGAAAGTAAA, the switch fluorescence ratio is reported as 0.982 ± 0.014.
GGAAAGTCAG showed a switch fluorescence ratio of 0.992 ± 0.027.
Work on GGAAATACGA yielded a switch fluorescence ratio of 1.27 ± 0.036.
GGAAATCAGG was tested, and the switch fluorescence ratio was 0.989 ± 0.012.
GGAAATGGCG was tested, and the switch fluorescence ratio was 0.981 ± 0.1.
With GGAAATTTGG the switch fluorescence ratio was 0.993 ± 0.037.
Sequence GGAAATTTGT has a switch fluorescence ratio of 1.008 ± 0.0044.
GGAACACTGT was tested, and the switch fluorescence ratio was 0.9955 ± 0.0077.
Sequence GGAACAGAGG has a switch fluorescence ratio of 0.9769 ± 0.007.
With GGAACATATA the switch fluorescence ratio was 1.01 ± 0.0064.
GGAACCTTGG showed a switch fluorescence ratio of 1.023 ± 0.0094.
GGAACCTTTT showed a switch fluorescence ratio of 1.04 ± 0.041.
For GGAACTCGCT, the switch fluorescence ratio was 1.02 ± 0.11.
Sequence GGAACTGGAG has a switch fluorescence ratio of 1.07 ± 0.031.
GGAAGAATAG was tested, and the switch fluorescence ratio was 1.02 ± 0.038.
In the case of GGAAGGAATG, the switch fluorescence ratio is reported as 0.966 ± 0.0076.
With GGAAGGCGGC the switch fluorescence ratio was 1.08 ± 0.071.
For GGAAGGGGGA, the switch fluorescence ratio was 1.07 ± 0.096.
For GGAAGGGTCG, the switch fluorescence ratio was 1.04 ± 0.022.
GGAAGGGTTT was tested, and the switch fluorescence ratio was 1.03 ± 0.061.
GGAAGTAGCC was tested, and the switch fluorescence ratio was 0.959 ± 0.038.
GGAAGTGGGA was tested, and the switch fluorescence ratio was 1.018 ± 0.0069.
In the case of GGAAGTTCTA, the switch fluorescence ratio is reported as 0.984 ± 0.016.
GGAAGTTTAA gave a switch fluorescence ratio of 1 ± 0.02.
For GGAATAAGGT, the switch fluorescence ratio was 1.01 ± 0.031.
In the case of GGAATAGAAA, the switch fluorescence ratio is reported as 0.994 ± 0.033.
GGAATAGATG was tested, and the switch fluorescence ratio was 1.026 ± 0.0015.
GGAATAGGGT showed a switch fluorescence ratio of 0.98 ± 0.052.
Sequence GGAATCCGGG has a switch fluorescence ratio of 0.987 ± 0.037.
Sequence GGAATCCTTG has a switch fluorescence ratio of 1 ± 0.0087.
For GGAATCGGGC, the switch fluorescence ratio was 0.9487 ± 0.0014.
GGAATCGGTG gave a switch fluorescence ratio of 0.996 ± 0.04.
GGAATGAAG gave a switch fluorescence ratio of 1.012 ± 0.01.
GGAATGACGA showed a switch fluorescence ratio of 0.989 ± 0.048.
Sequence GGAATGAGTA has a switch fluorescence ratio of 0.997 ± 0.016.
Work on GGAATGCGGG yielded a switch fluorescence ratio of 0.9701 ± 0.0077.
GGAATGGGGA gave a switch fluorescence ratio of 1 ± 0.037.
In the case of GGAATGGTAG, the switch fluorescence ratio is reported as 1.01 ± 0.099.
Sequence GGAATGTCGG has a switch fluorescence ratio of 0.962 ± 0.051.
With GGAATTGATG the switch fluorescence ratio was 1.04 ± 0.046.
GGAATTGCA showed a switch fluorescence ratio of 0.958 ± 0.022.
Sequence GGAATTGTCC has a switch fluorescence ratio of 1.44 ± 0.69.
GGAATTTGTT gave a switch fluorescence ratio of 1 ± 0.021.
GGACAAAACT was tested, and the switch fluorescence ratio was 1.08 ± 0.12.
For GGACAAGGGG, the switch fluorescence ratio was 0.962 ± 0.038.
Sequence GGACACATGC has a switch fluorescence ratio of 1.1 ± 0.14.
With GGACATGTAG the switch fluorescence ratio was 0.965 ± 0.024.
GGACCAAAAG was tested, and the switch fluorescence ratio was 1.002 ± 0.0067.
Work on GGACCAGGGT yielded a switch fluorescence ratio of 1.04 ± 0.0071.
In the case of GGACCATATC, the switch fluorescence ratio is reported as 1.07 ± 0.017.
GGACCGCATT was tested, and the switch fluorescence ratio was 2.5 ± 0.22.
Sequence GGACCGGTGA has a switch fluorescence ratio of 1.01 ± 0.042.
GGACCTGGTT showed a switch fluorescence ratio of 0.986 ± 0.013.
In the case of GGACGCGTGG, the switch fluorescence ratio is reported as 1.01 ± 0.018.
GGACGGAAGA showed a switch fluorescence ratio of 1.101 ± 0.01.
For GGACGGCCGC, the switch fluorescence ratio was 1.06 ± 0.037.
Sequence GGACGGTATT has a switch fluorescence ratio of 1.08 ± 0.051.
GGACGTTTTT showed a switch fluorescence ratio of 1.01 ± 0.015.
Work on GGACTACCGC yielded a switch fluorescence ratio of 1.14 ± 0.019.
Work on GGACTCAGGG yielded a switch fluorescence ratio of 1.03 ± 0.051.
GGACTCTCGG was tested, and the switch fluorescence ratio was 0.967 ± 0.024.
GGACTTATTT gave a switch fluorescence ratio of 0.986 ± 0.014.
Work on GGACTTGTGA yielded a switch fluorescence ratio of 0.997 ± 0.018.
Sequence GGAGAAAGCG has a switch fluorescence ratio of 0.976 ± 0.016.
GGAGAATATG showed a switch fluorescence ratio of 1.038 ± 0.0095.
In the case of GGAGACAGGA, the switch fluorescence ratio is reported as 1.04 ± 0.012.
Work on GGAGAGAAAG yielded a switch fluorescence ratio of 0.9866 ± 0.0024.
GGAGAGAGGG was tested, and the switch fluorescence ratio was 1.02 ± 0.044.
Sequence GGAGAGCATT has a switch fluorescence ratio of 1.039 ± 0.0091.
Sequence GGAGAGCGGT has a switch fluorescence ratio of 1.02 ± 0.011.
GGAGAGGCGT gave a switch fluorescence ratio of 1 ± 0.013.
For GGAGATAGTT, the switch fluorescence ratio was 0.9806 ± 0.0057.
For GGAGATTGTG, the switch fluorescence ratio was 0.9766 ± 0.0043.
GGAGCAAGGG gave a switch fluorescence ratio of 3.37 ± 1.5.
In the case of GGAGCAGGCG, the switch fluorescence ratio is reported as 1.04 ± 0.04.
In the case of GGAGCTAGGG, the switch fluorescence ratio is reported as 1.056 ± 0.0058.
Sequence GGAGGAAGGC has a switch fluorescence ratio of 1.75 ± 0.58.
For GGAGGAAGGG, the switch fluorescence ratio was 0.983 ± 0.025.
Sequence GGAGGAGATA has a switch fluorescence ratio of 0.995 ± 0.02.
In the case of GGAGGAGTGT, the switch fluorescence ratio is reported as 0.959 ± 0.037.
Work on GGAGGATGAG yielded a switch fluorescence ratio of 1.01 ± 0.013.
Work on GGAGGATGGG yielded a switch fluorescence ratio of 1 ± 0.014.
GGAGGCGGTG was tested, and the switch fluorescence ratio was 1.048 ± 0.0039.
For GGAGGCTAGC, the switch fluorescence ratio was 1.01 ± 0.054.
GGAGGGATAA showed a switch fluorescence ratio of 1.1 ± 0.054.
GGAGGGCTCG gave a switch fluorescence ratio of 0.981 ± 0.043.
For GGAGGGGATG, the switch fluorescence ratio was 0.981 ± 0.011.
GGAGGGTGAG showed a switch fluorescence ratio of 0.984 ± 0.014.
GGAGGGTTAT gave a switch fluorescence ratio of 0.995 ± 0.038.
For GGAGGTTAAC, the switch fluorescence ratio was 1.012 ± 0.0091.
In the case of GGAGTAAGAT, the switch fluorescence ratio is reported as 1.3 ± 0.018.
GGAGTACTGT was tested, and the switch fluorescence ratio was 1.02 ± 0.013.
GGAGTATGGG was tested, and the switch fluorescence ratio was 0.997 ± 0.029.
In the case of GGAGTCAGAA, the switch fluorescence ratio is reported as 0.995 ± 0.014.
Work on GGAGTCTAGC yielded a switch fluorescence ratio of 0.9825 ± 0.0036.
With GGAGTGGGTC the switch fluorescence ratio was 1.02 ± 0.041.
With GGAGTGGTTG the switch fluorescence ratio was 0.999 ± 0.036.
With GGAGTTAAGT the switch fluorescence ratio was 0.987 ± 0.043.
In the case of GGAGTTGAGG, the switch fluorescence ratio is reported as 0.98147 ± 0.00093.
In the case of GGAGTTGATT, the switch fluorescence ratio is reported as 0.9808 ± 0.0015.
In the case of GGAGTTGTGA, the switch fluorescence ratio is reported as 0.995 ± 0.021.
With GGAGTTTGGG the switch fluorescence ratio was 0.994 ± 0.039.
GGAGTTTGTG was tested, and the switch fluorescence ratio was 0.989 ± 0.014.
GGATAAGGAC was tested, and the switch fluorescence ratio was 0.984 ± 0.019.
Work on GGATAATAAG yielded a switch fluorescence ratio of 1.01 ± 0.029.
GGATAATATT was tested, and the switch fluorescence ratio was 1.05 ± 0.026.
For GGATACCGTA, the switch fluorescence ratio was 1 ± 0.085.
In the case of GGATAGAGGA, the switch fluorescence ratio is reported as 1.01 ± 0.02.
Work on GGATAGGGGC yielded a switch fluorescence ratio of 1.03 ± 0.054.
For GGATATAGTC, the switch fluorescence ratio was 1 ± 0.036.
In the case of GGATATATGG, the switch fluorescence ratio is reported as 1 ± 0.025.
Work on GGATATCTGG yielded a switch fluorescence ratio of 1.014 ± 0.0053.
GGATATGAGG gave a switch fluorescence ratio of 1 ± 0.018.
GGATATGTGT was tested, and the switch fluorescence ratio was 0.991 ± 0.016.
In the case of GGATATTTGG, the switch fluorescence ratio is reported as 0.992 ± 0.029.
With GGATCCACGG the switch fluorescence ratio was 1.012 ± 0.005.
Work on GGATCCTTTC yielded a switch fluorescence ratio of 1.23 ± 0.083.
GGATCGCGAA was tested, and the switch fluorescence ratio was 0.978 ± 0.011.
Sequence GGATCGGGGG has a switch fluorescence ratio of 1.03 ± 0.05.
With GGATCGTGGG the switch fluorescence ratio was 0.995 ± 0.03.
GGATGAAGGA gave a switch fluorescence ratio of 0.978 ± 0.038.
In the case of GGATGAATTG, the switch fluorescence ratio is reported as 1.01 ± 0.018.
Sequence GGATGATTTG has a switch fluorescence ratio of 0.968 ± 0.025.
GGATGCGCAG was tested, and the switch fluorescence ratio was 0.987 ± 0.016.
For GGATGCGGCC, the switch fluorescence ratio was 0.992 ± 0.023.
GGATGGGATG showed a switch fluorescence ratio of 0.989 ± 0.04.
GGATGGGGTG gave a switch fluorescence ratio of 1.01 ± 0.053.
GGATGTCTAG showed a switch fluorescence ratio of 0.9885 ± 0.0037.
For GGATGTGGGA, the switch fluorescence ratio was 0.981 ± 0.017.
With GGATGTGGGG the switch fluorescence ratio was 0.969 ± 0.034.
Work on GGATGTTAGT yielded a switch fluorescence ratio of 1 ± 0.008.
Sequence GGATGTTTGG has a switch fluorescence ratio of 0.975 ± 0.014.
Sequence GGATTAAATG has a switch fluorescence ratio of 0.982 ± 0.037.
GGATTAATCG was tested, and the switch fluorescence ratio was 1 ± 0.015.
GGATTACAGT gave a switch fluorescence ratio of 0.997 ± 0.014.
GGATTAGGGG was tested, and the switch fluorescence ratio was 0.998 ± 0.022.
In the case of GGATTAGTCA, the switch fluorescence ratio is reported as 0.9973 ± 0.0047.
In the case of GGATTATATT, the switch fluorescence ratio is reported as 1.0205 ± 0.00083.
For GGATTCAGGC, the switch fluorescence ratio was 0.981 ± 0.027.
GGATTCCGGC was tested, and the switch fluorescence ratio was 0.981 ± 0.053.
GGATTCGGTG gave a switch fluorescence ratio of 0.976 ± 0.02.
Work on GGATTGAAGT yielded a switch fluorescence ratio of 0.981 ± 0.023.
GGATTGAGGC showed a switch fluorescence ratio of 0.968 ± 0.0046.
With GGATTGAGGT the switch fluorescence ratio was 1.02 ± 0.032.
GGATTGATTA showed a switch fluorescence ratio of 1.01 ± 0.032.
